The record followed here is patent US20260266828A1, “BIOMARKERS FOR PREDICTING CANCER TREATMENT EFFICACY” (Arcus Biosciences, Inc., priority 2023, published 2026).

This experiment has as its system metastatic (Stage IV) squamous or non-squamous NSCLC. The experiment can be described thus: PFS in serum cytokine selected subsets of the trial of Example 2. The experiment is classed as in vivo, human. To be noted: median. As for the experimental part:
Soluble biomarkers were retrospectively analyzed in baseline and on-treatment peripheral blood derived samples obtained from a subset of subjects enrolled in the clinical trial of Example 2. Baseline samples were obtained on day 1 of cycle 1 (CID1), prior to administration of any study drugs. On-treatment samples were obtained on day 1 of cycle 2 (C2D1), prior to administration of study drugs on that day.
Blood collected in serum separator tubes was allowed to clot for 30-60 minutes before centrifugation at 1300 g for 10 minutes to separate the serum. Serum was isolated and stored at −80° C. until cytokine analysis. Serum cytokines were quantified in multiplex assays using the Meso Scale Discovery platform following the manufacturer's protocol. Briefly, plates were coated with biotinylated capture antibodies specific to the analyte of interest bound to linkers specific to unique spots in each well of a 96-well plate. Serum samples, assessed in duplicate, were diluted 8-fold to quantify CXCL9, CXCL10, CXCL11 and IL-18 in a U-plex assay, diluted 10-fold to quantify IL-12B in a U-plex assay, and diluted 5-fold to quantify IFNγ, TNFα and IL-6 in the S-plex assay. Samples were incubated on linker/capture antibody-coated plates, followed by detection with a sulfo-tag-labelled antibody for the U-plex assays and a TURBO-tag-labelled antibody for the S-plex assay. For the S-plex assay, additional steps incorporated in the manufacturer's protocol to amplify signal with enhance solution and detection solution were followed. Following addition of read buffer, the electrochemiluminescent signal was measured on a MESO Sector S 600 instrument. Between each step of the protocol plates were washed with 0.05% Tween-PBS. A standard curve was generated for each plate using a 4-parameter logistic fit with 1/y^2 weighting. Cytokine concentrations in samples were interpolated using the standard curve, allowing quantification of the analyte of interest. Fold change from baseline was calculated as a ratio of the cytokine concentration at C2D1 over the cytokine concentration at baseline. A linear mixed model performed on log transformed raw cytokine values with baseline values as covariates assessed the difference in cytokine levels over time and between treatment groups.
Kaplan-Meier survival plots using progression-free survival data and cytokine concentrations were generated in the Jmp software, and hazard ratios were calculated between patient groups of interest. Comparisons were made for each analyte between zimberelimab monotherapy and domvanalimab combination groups both at baseline and using the fold change at C2D1 using median values to stratify patients in to low and high cytokine groups. Stratifying subjects by baseline cytokine expression (e.g., CXCL9, CXCL10, CXCL11, LL-6, TNFα) around the median value (high vs. low) enriched for clinical benefit with the addition of domvanalimab. Baseline reference values derived from the biomarker evaluable population (BEP) are as follows (high is ≥reference value, and low is <reference value): CXCL9: 278.7 pg/mL; CXCL10: 445.4 pg/mL; CXCL11:104.2 pg/mL; L-6: 15550 fg/mL; TNFα: 1194 fg/mL. Induction reference values derived from the BEP are as follows (high is ≥reference value, and low is <reference value): CXCL9: 1.76 fold change; CXCL10: 1.52 fold change; […]: 1.14 fold change IL-18: 1.1 fold change; IFNγ: 1.23 fold change.

B1: zimberelimab (antibody, chains of the INN, looked up, V domains shown)
VH: QLQLQESGPGLVKPSETLTLTCTVSADSISSTTYYWVWIRQPPGKGLEWIGSISYSGSTYYNPSLKSRVTVSVDTSKNQFSLKLNSVAATDTALYYCARHLGYNGRYLPFDYWGQGTLVTVSS
VL: QSALTQPASVSGSPGQSITISCTGTSSDVGFYNYVSWYQQHPGKAPELMIYDVSNRPSGVSDRFSGSKSGNTASLTISGLQAEDEADYYCSSYTSISTWVFGGGTKLTVL
notes: zimberelimab monotherapy 360 mg IV Q3W; anti-PD-1 antibody
With B1, the PFS is recorded as 5.7 mo (BEP (fold change from baseline to C2D1)); 5.6 mo (BEP for cytokine analysis (baseline samples)); 2.7 mo (CXCL9 High Induction at C2D1 (≥1.76 fold change)); 4 mo (CXCL9 High at Baseline (≥278.7 pg/mL)); 9.7 mo (CXCL9 Low Induction at C2D1 (<1.76 fold change)); 7.6 mo (CXCL9 Low at Baseline (<278.7 pg/mL)). The PFS (CXCL10 High Induction at C2D1 (≥1.52 fold change)) amounted to 2.7 mo; the PFS (CXCL10 High at Baseline (≥445.4 pg/mL)) came out at 5.4 mo; the PFS (CXCL10 Low Induction at C2D1 (<1.52 fold change)) was 11.7 mo; the PFS (CXCL10 Low at Baseline (<445.4 pg/mL)) amounted to 7.6 mo; the PFS (CXCL11 High at Baseline (≥104.2 pg/mL)) came to 4.9 mo; the PFS (CXCL11 Low at Baseline (<104.2 pg/mL)) was determined as 5.6 mo. Also, the PFS was 4.5 mo (IFNγ High Induction at C2D1 (≥1.23 fold change)); 11.7 mo (IFNγ Low Induction at C2D1 (<1.23 fold change)); 1.8 mo (IL-6 High at Baseline (≥15550 fg/mL)); 9.6 mo (IL-6 Low at Baseline (<15550 fg/mL)); 9.6 mo (IL-12B High Induction at C2D1 (≥1.14 fold change)); 2.5 mo (IL-12B Low Induction at C2D1 (<1.14 fold change)). For the same molecule, the PFS is, setting by setting: (IL-18 High Induction at C2D1 (≥1.1 fold change)) 5.7 mo; (IL-18 Low Induction at C2D1 (<1.1 fold change)) 4.5 mo; (TNFα High at Baseline (≥1194 fg/mL)) 3.5 mo; (TNFα Low at Baseline (<1194 fg/mL)) 5.7 mo.
